Source: doi:10.1101/2020.07.06.189761

Key:
[1] = target: T1, UM-Pif1 (unmodified Pif1) (Saccharomyces cerevisiae, UniProt P07271 1-859); test: BLI
T1 sequence: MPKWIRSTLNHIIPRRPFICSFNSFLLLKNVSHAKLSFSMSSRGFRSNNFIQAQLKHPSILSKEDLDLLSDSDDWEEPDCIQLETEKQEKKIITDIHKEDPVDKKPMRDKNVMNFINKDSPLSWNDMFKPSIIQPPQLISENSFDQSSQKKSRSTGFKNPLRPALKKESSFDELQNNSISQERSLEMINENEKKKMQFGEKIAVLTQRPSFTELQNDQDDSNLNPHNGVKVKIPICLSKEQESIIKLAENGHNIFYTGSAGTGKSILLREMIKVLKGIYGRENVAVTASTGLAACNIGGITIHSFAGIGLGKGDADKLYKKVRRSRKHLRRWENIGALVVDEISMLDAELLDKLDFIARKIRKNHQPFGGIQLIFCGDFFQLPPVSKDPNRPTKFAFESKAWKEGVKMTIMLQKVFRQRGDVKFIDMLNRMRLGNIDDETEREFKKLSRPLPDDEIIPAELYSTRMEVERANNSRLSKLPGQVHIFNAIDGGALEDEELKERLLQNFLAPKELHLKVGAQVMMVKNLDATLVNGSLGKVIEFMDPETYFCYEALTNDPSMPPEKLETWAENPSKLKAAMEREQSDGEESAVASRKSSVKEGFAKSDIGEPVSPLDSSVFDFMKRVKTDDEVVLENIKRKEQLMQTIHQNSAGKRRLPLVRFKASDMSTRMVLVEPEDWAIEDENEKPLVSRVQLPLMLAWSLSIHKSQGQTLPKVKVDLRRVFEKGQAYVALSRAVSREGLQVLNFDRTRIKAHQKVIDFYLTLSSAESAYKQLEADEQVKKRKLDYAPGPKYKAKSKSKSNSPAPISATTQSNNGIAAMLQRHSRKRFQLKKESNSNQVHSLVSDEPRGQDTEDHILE

UM-Pif1ΔN (unmodified) = target: T2, UM-Pif1ΔN (unmodified) (Saccharomyces cerevisiae, UniProt P07271 234-859, del1-233); test: BLI
T2 sequence: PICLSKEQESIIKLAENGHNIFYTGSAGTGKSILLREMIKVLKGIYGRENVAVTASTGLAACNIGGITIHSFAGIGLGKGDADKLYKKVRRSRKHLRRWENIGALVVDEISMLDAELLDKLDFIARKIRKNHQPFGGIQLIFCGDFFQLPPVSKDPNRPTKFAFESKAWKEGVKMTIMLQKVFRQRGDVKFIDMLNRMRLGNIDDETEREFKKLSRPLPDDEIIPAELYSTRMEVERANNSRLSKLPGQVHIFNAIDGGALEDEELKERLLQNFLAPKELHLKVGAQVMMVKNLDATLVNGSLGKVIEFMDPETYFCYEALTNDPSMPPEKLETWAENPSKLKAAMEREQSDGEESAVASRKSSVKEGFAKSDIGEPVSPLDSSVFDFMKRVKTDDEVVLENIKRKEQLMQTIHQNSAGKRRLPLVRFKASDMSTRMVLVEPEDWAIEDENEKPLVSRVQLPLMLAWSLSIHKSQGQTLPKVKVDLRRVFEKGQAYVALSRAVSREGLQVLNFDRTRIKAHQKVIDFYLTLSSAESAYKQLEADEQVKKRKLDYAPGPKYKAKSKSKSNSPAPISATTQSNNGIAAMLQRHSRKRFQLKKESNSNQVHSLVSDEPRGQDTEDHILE

TTTTTTTTTTTTTTTTTTTTTTTTTGTGTCACTCACATAGCGTTC (ssDNA) [T1 45-nt ssDNA] gave a Kd [1] of 19.1 ± 5.1 nM and a Kd (UM-Pif1ΔN (unmodified)) of 14.1 ± 1.5 nM.
